Assay results reported in patent US20240190915A1 (KLINIKUM RECHTS DER ISAR DER TECHNISCHEN UNIVERSIT T M NCHEN, published 2024).

Assays:
[1] = biological target: Polr2a (mouse, endogenous) (mouse, UniProt P08775 1-1970); experiment: co-IP, endogenous proteins, mouse pancreatic tissue
[2] = biological target: T1, AGR2 (human, endogenous in PDAC cells) (human, UniProt O95994 21-175, limits assumed); experiment: co-IP competition in PDAC cells, dose-dependent inhibition of POLR2A-AGR2 binding
T1 construct: Endogenous protein co-immunoprecipitated from Capan2 cell lysate
T1 sequence (looked up): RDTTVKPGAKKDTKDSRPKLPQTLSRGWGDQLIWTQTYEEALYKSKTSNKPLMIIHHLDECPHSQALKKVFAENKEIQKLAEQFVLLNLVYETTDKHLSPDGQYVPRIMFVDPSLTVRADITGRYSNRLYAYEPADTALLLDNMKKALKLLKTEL

[3] = biological target: T1, AGR2 (human, endogenous in PDAC cells); experiment: co-IP competition in Capan2 cells (FIG. 5B)

B1: Agr2 (mouse, endogenous) (other)
chain: KDTTVKSGAKKDPKDSRPKLPQTLSRGWGDQLIWTQTYEEALYRSKTSNRPLMVIHHLDECPHSQALKKVFAEHKEIQKLAEQFVLLNLVYETTDKHLSPDGQYVPRIVFVDPSLTVRADITGRYSNRLYAYEPSDTALLYDNMKKALKLLKTEL
notes: Endogenous protein co-immunoprecipitated from mouse pancreatic tissue lysate
Does B1 bind [1]?
Result: binds

B2: hexapeptide PTTIYY (SEQ ID NO:4) (peptide)
peptide: PTTIYY
notes: Synthetic, previously described peptide used as positive control; liposome-encapsulated form; also called bioactive hexapeptide; positive control
Does B2 bind [2]?
Result: binds

B3: hexapeptide NTAIYY (SEQ ID NO:2) (peptide)
peptide: NTAIYY
notes: also called bioactive hexapeptide
Does B3 bind [3]?
Result: binds
